Results reported in the DeepSol protein solubility set.

Test: soluble on expression in E. coli; label from the status in PepcDB or PDB records

Sequence | soluble on expression in E. coli
MSISTIRRQVKNVAYNFSDAQVKVREATSNDPWGPSTALMSEIADLTHNPMAFTEIMSIVWKRLNDSGKNWRHVYKSLVLLDFLIKCGHEKVAQQCRENVFTIETLKDFQHVEDNRDQGLNIREKAKQITSLLSDDERLKNERTRFILTRNKFKQNNPGPVGAESRRSNRHHVTDASLDPEYEDARPSTATEEEMQLQIALALSREECEKADEMRKSDDARLQMALEESQKLQDADRLATTKQGTVSSGQLTQSALDDLLSLGVGELVSGNNDQPSSSSAWGMNDPWGAPQASASLNTNDQMFANSMSNNDPWATSTVAQPVAATAPNSDPFASWDAPAPAATTPSTMPTSSSFDLLGGDLLSPTNSLSANINTNNSTNGTRKTPENFLGENSNLVNLDNLLGSGTPSTTGGNPFLTGAAPANANPFAAQQRKSPTLNEMRAAQGQAPPIPSMAPRGTLPQANPFANPF | not soluble
MIDKKTYNEIGVHIPSILLPKEGIDMQKWSVVACDQYTSEPEYWEEVEKKVGDNPSTLHLIFPEIYLEHGNADERIKRINNEMKRYINEGILVSQKPCMLLVDRSTPHTKSRKGLILAVDLEKYDYSAGSQTLIRATEGTVIERLPPRVKIRENAILELPHVMLLIDDPDKTVIEPLAGKLDSFEKVYDFELMMNGGHIRGYRIDDGETLKGILKAIEALADPEVFKSKYKVGDDKGVLLFAVGDGNHSLASAKVHWENVKKSLSEAEVEDHPARFALVEVVNVHDDGIVFEPIHRVLFNIEPESVLNALQDFFGSSCCSLEKFDSLESVNKRLSELKREEAVHSFGFVTDRSFGVFTVQNLKHNLEVATLQGFLDYYLGKQKEAKVDYIHGEDVVTKLGSKPGNIGFYLPSMEKHDLFKTVILDGVLPRKTFSMGEAEEKRFYLECRKIVKD | soluble
AHHHHHHGSIDAHAHIEFFKKNQEEIIEEAKRKLRGVVDSITEYRKTHVWKSWELLKDYFDFIFPTLGYHPNEARRGNWEKVRKVEDFILKHQKEIFGIGEIGLDYYHAKTKAERDAQREIFVHFLELAKELNLPVVIHAREAEKEALEIINRYDIPSYFHSYTGSVEVAREIVDGGHILGISTGIVFIPEVREVAKNIEIEYLVVETDAPYMSPYKGIRNKPIFVEVAIEELAKIKGMDKTEVEAVTEVNTIKFFSLPL | soluble
MSLTETAIENSVTVFHIESDEIKGRIIGREGRNIRALEAATGVEIVVDDTPEAIVLSAFDPVRREIARLALHQLVTDGRIHPARIEEVVAKVRKQVEEEIIETGKRTTIDLGIHGLHPELIRIIGKMKYRSSYGQNLLQHARETANLCAVMASELGLNPKKAKRAGLLHDIGKVPDEEPELPHALLGMKLAEKFKEKPDICNAIGAHHDEIEMTSLLAPIVQVCDAISGARPGARREIVEAYIKRLNDLEQLAMSYPGVTKTYAIQAGRELRVIVGADKIDDKQTENLSGEIAKKIQDEMTYPGQVKITVIRETRAVSFAKEGHHHHHH | soluble
MGSDKIHHHHHHMESITLTADLDALAKTSAFITAAAERCGLDERATWQVQLAVDEAVTNVIQHAYDPDQPGDFTLSWQCHDQRFIVTVRDHGRQFDPSTVPVPDITSPLEERQVGGLGIYLITRLMDEVHFEFSPQGGNLLTMVKYLPSDQAEEANEVVVIPINDRIDALTAPRLSKTVNEQISQGARQIVLDFSNVPFLSSSGLRALLLIRKELMTLGGELRLAALQPQVHEVFTITGFTQVFNIHPSVTEARAAFSQRR | not soluble
NPVENYIDEVLNEVLVVPNINSSNPTTSNSAPALDAAETGHTSSVQPEDVIETRYVQTSQTRDEMSLESFLGRSGCIHESKLEVTLANYNKENFTVWAINLQEMAQIRRKFELFTYTRFDSEITLVPCISALSQDIGHITMQYMYVPPGAPVPNSRDDYAWQSGTNASVFWQHGQAYPRFSLPFLSVASAYYMFYDGYDEQDQNYGTANTNNMGSLCSRIVTEKHIHKVHIMTRIYHKAKHVKAWCPRPPRALEYTRAHRTNFKIEDRSIQTAIVTRPIITTAGPSDMY | soluble
MQLALVLSELGEYQVSNQWLLKIIHDLDETMYDCLYFLANNYACLGLFREATQYAEQYLTCESDGEFADDAADLLELLKLDRHDVSEEQEQLITMQERARHLLEQERFAEAIEALEAIVSRYPEFWSAHNNLALAYFYNGDVERAKQKLLEVLKRDPGNLHALCNALVFAYYLHDQEEVAALCETLASVYPFFREHQYKLGATFALVGRFDSAFRWLYRLYKNGFDGDGPFYYWLAYSAYHIGHESLARQVWETLTTLHPEKRGELEHHHHHH | not soluble
MNEEILPILTVKDLNAGYLTNEKYIGIIHNINIELNRGKIVGITGLSGSGKTTLLKSILLETHIKSGEIIFNGKPIMPGDTKNYRRSVIYVPQNSLDSLDIIWPIEDQVKKILKQHNVVYDINKVSEIAKLIDLDISMLKLKSFEVSYGTRHKIVLLMSILMAKRDLVVLMDEPTLSQDAITAEGILNIIVKLAKDYGSSFIIVSSSPEPVFYASDFIYIMYGGWIVENGTPNDLSKWPKHPFTYEFINMLPAHKTRDRFPKFPMTEFSENGCPYSIYCKNKIKGCDSHINMFGEGHKYRCLNPVV | not soluble
MKKIIETQRAPGAIGPYVQGVDLGSMVFTSGQIPVCPQTGEIPADVQDQARLSLENVKAIVVAAGLSVGDIIKMTVFITDLNDFATINEVYKQFFDEHQATYPTRSCVQVARLPKDVKLEIEAIAVRSA | soluble
PRLLCTATKQKNSGQNLEEDMGQSEQKADPPATEKTLLEEKVKLEEQLKETVEKYKRALADTENLRQRSQKLVEEAKLYGIQAFCKDLLEVADVLEKATQCVPKEEIKDDNPHLKNLYEGLVMTEVQIQKVFTKHGLLKLNPVGAKFDPYEHEALFHTPVEGKEPGTVALVSKVGYKLHGRTLRPALVGVVKEA | not soluble
MVLPKSKNQIGLGRAIQSDFTKNRRNRKGGLKHIVDSDPKAHRAALRSVTHETDLDEFLNTAELGEVEFIAEKQNVTVIQNPEQNPFLLSKEEAARSKQKQEKNKDRLTIPRRPHWDQTTTAVELDRMERESFLNWRRNLAQLQDVEGFIVTPFERNLEIWRQLWRVIERSDVVVQIVDARNPLFFRSAHLEQYVKEVGPSKKNFLLVNKADMLTEEQRNYWSSYFNENNIPFLFFSARMAAEANERGEDLETYESTSSNEIPESLQADENDVHSSRIATLKVLEGIFEKFASTLPDGKTKMTFGLVGYPNVGKSSTINALVGSKKVSVSSTPGKTKHFQTINLSEKVSLLDCPGLVFPSFATTQADLVLDGVLPIDQLREYTGPSALMAERIPKEVLETLYTIRIRIKPIEEGGTGVPSAQEVLFPFARSRGFMRAHHGTPDDSRAARILLKDYVNGKLLYVHPPPNYPNSGSEFNKEHHQKIVSATSDSITEKLQRTAISDNTLSAESQLVDDEYFQENPHVRPMVKGTAVAMQGPVYKGRNTMQPFQRRLNDDASPKYPMNAQGKPLSRRKARQLTALELGVSPEALSSATSKKHNKKNKRSKQRSGVVIDDY | soluble
MRGSHHHHHHGSACMKRQGASSERKRARIPSGKAGAANGFLMEVCVDSVESAVNAERGGADRIELCSGLSEGGTTPSMGVLQVVKQSVQIPVFVMIRPRGGDFLYSDREIEVMKADIRLAKLYGADGLVFGALTEDGHIDKELCMSLMAICRPLPVTFHRAFDMVHDPMAALETLLTLGFERVLTSGCDSSALEGLPLIKRLIEQAKGRIVVMPGGGITDRNLQRILEGSGATEFHCSARSTRDSGMKFRNSSVAMGASLSCSEYSLKVTDVTKVRTLNAIAKNILV | soluble
AHHHHHHGSPIRKVMKANEAAAWAAKLAKPKVIAAFPITPSTLIPEKISEFVANGELDAEFIKVESEHSAISACVGAAAAGVRTFTATASQGLALMHEILFIAAGMRLPIVMAIGNRALSAPINIWNDWQDTISQRDTGWMQFYAENNQEALDLILIAYKVAEDERVLLPAMVGFDAFILTHTVEPVEIPDQEVVDEFLGEYEPKHAYIDPARPITQGSLAFPAHYMESRYTVWEAMERAKKVIDEAFAEFEKKFGRKYQKIEEYKTEDADIIFVTMGSLAGTLKEWIDKKREEGYKVGAAKITVYRPFPVEEIRELAKKAKVLAFLEKNITIGLYGAVFTDASAALINESEKPLMVDFIVGLGGRDVTFNQLDEALEIAEKALKEGKVENPINWIGLRWELVK | soluble
MSLHGELDKIYETLALAERRGPGPVDLLLCCGDFQAVRNEADLRCMAVPPKYRHMQTFYRYYSGEKKAPVLTLFIGGNHEASNHLQELPYGGWVAPNIYYLGLAGVVKYRGVRIGGISGIFKSHDYRKGHFECPPYNSSTIRSIYHVRNIEVYKLKQLKQPIDIFLSHDWPRSIYHYGNKKQLLKTKSFFRQEVENNTLGSPAASELLEHLKPTYWFSAHLHVKFAALMQHQAKDKGQTARATKFLALDKCLPHRDFLQILEIEHDPSAPDYLEYDIEWLTILRATDDLINVTGRLWNMPENNGLHARWDYSATEEGMKEVLEKLNHDLKVPCNFSVTAACYDPSKPQTEGHHHHHH | soluble
MGSDKIHHHHHHMTTPTPVRAIVPTWLYEGLGLLVANPKVGKSTLMLQIVVAVTKGGEMWGQSVPRAKVLMIDLETNERRLRRKLEQAGAVGIESGWLLYATSWPRGLLGIDEIANTLDRDPEIKLVVIDTLQRFRDPGAGKQNAYAADYEALGPLQQLCRDRPGLAIVCVHHKRKSISDDPIDSISGSAAIAGACDSIWIMSRKGSEYTLHIQGRDWERDEDTFPIERVDQGWQLVNGPRYSSNEAEVLKHLEISGGMTGPQLGEALGIHRVSAYERLKRMADRGLVRFAGEHWHVS | not soluble
MKELMRNVYLLDDTLVTKSKYGSHYGEKVFDGYREWVPWRSKLAAMILKGHRLKLRGDERVLYLGAASGTTVSHLADIVDEGIIYAVEYSAKPFEKLLELVRERNNIIPLLFDASKPWKYSGIVEKVDLIYQDIAQKNQIEILKANAEFFLKEKGEVVIMVKARSIDSTAEPEEVFKSVLKEMEGDFKIVKHGSLMPYHRDHIFIHAYRF | soluble
VEQELATKMLQIQSKRFYLDVKQNRRGRFIKVAEIGADGRRSQIYLALSTAAEFRDHLSSFSDYYASLGPPNTDNLPEDGKLKSEMMIKDYRRYYLDLKENARGRFLRVSQTITRGGPRSQIALPAQGMIEFRDALTDLLEEFGAN | soluble
MPVVYKRILLKLSGEALMGDGHYGIDRAVVEHIVVEVAGVLQLGVEVAIVVGGGNIFRGMKSAGDGMDRVTADYMGMLATTMNALALHDAMRRNGVVSRVQSALRIDQVVEPYVRGKALRYLDERKVVVFAAGTGNPFFTTDTAAALRGMEMNANIVLKATKVDGIYTSDPLKNKDAQRFQSLTFDEAISKNLQVMDATALTLCRDQKLPINVFSIFKTGALKRVIMGEDEGTSVFV | not soluble
MNLNFIVPDINMTFGDMKFMGLNRERYVYDRENNKRTDVLESRIYNIASAVQGGQIEVTIPEYAGAKEIPPFADIELKNPKISAMATSQRDSTYANVMWKLEADDIVVKGGSSVKPAAATGGNEKKLEHHHHHH | not soluble
